From PMC10397247
Where two headings read alike, the source gives them in different places.

How the values were obtained:
4H3029-AA = target: T1, 4H3029-AA; assay: two-hybrid library CCmax;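 note: natural log of median RNA to DNA barcode read ratio; higher means stronger binding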
T1 chain: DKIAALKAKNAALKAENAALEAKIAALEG

4H3066-AA = target: T2, 4H3066-AA; assay: two-hybrid library CCmax; details: mean of both orientations;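 note: natural log of median RNA to DNA barcode read ratio; higher means stronger binding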
T2 chain: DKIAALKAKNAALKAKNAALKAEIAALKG

4H3102-AA = target: T3, 4H3102-AA; assay: two-hybrid library CCmax; details: mean of both orientations;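 note: natural log of median RNA to DNA barcode read ratio; higher means stronger binding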
T3 chain: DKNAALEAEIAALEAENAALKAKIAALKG

4H3121-AA = target: T4, 4H3121-AA; assay: two-hybrid library CCmax; details: mean of both orientations;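 note: natural log of median RNA to DNA barcode read ratio; higher means stronger binding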
T4 chain: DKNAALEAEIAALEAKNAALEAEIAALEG

4H3417-AA = target: T5, 4H3417-AA; assay: two-hybrid library CCmax; details: mean of both orientations;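 note: natural log of median RNA to DNA barcode read ratio; higher means stronger binding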
T5 chain: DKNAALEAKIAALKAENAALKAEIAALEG

4H3446-AA = target: T6, 4H3446-AA; assay: two-hybrid library CCmax; details: mean of both orientations;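 note: natural log of median RNA to DNA barcode read ratio; higher means stronger binding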
T6 chain: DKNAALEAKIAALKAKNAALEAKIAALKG

4H3591-AA = target: T7, 4H3591-AA; assay: two-hybrid library CCmax; details: mean of both orientations
T7 chain: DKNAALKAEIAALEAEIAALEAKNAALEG

4H3628-AA = target: T8, 4H3628-AA; assay: two-hybrid library CCmax; details: mean of both orientations
T8 chain: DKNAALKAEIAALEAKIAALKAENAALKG

4H3666-AA = target: T9, 4H3666-AA; assay: two-hybrid library CCmax; details: mean of both orientations
T9 chain: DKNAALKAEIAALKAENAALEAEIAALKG

4H3709-AA = target: T10, 4H3709-AA; assay: two-hybrid library CCmax; details: mean of both orientations
T10 chain: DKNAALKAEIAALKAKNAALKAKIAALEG

4H391-AA = target: T11, 4H391-AA; assay: two-hybrid library CCmax; details: mean of both orientations
T11 chain: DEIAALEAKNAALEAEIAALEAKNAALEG

4H3920-AA = target: T12, 4H3920-AA; assay: two-hybrid library CCmax; details: mean of both orientations
T12 chain: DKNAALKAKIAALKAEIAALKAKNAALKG

4H3939-AA = target: T13, 4H3939-AA; assay: two-hybrid library CCmax; details: mean of both orientations
T13 chain: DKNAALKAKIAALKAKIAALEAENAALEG

4H428-AA = target: T14, 4H428-AA; assay: two-hybrid library CCmax; details: mean of both orientations
T14 chain: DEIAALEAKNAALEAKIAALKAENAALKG

4H478-AA = target: T15, 4H478-AA; assay: two-hybrid library CCmax; details: mean of both orientations
T15 chain: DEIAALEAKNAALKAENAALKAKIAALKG

4H497-AA = target: T16, 4H497-AA; assay: two-hybrid library CCmax; details: mean of both orientations
T16 chain: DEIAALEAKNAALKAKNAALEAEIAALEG

4H656-AA = target: T17, 4H656-AA; assay: two-hybrid library CCmax; details: mean of both orientations
T17 chain: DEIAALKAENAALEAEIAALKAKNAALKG

4H675-AA = target: T18, 4H675-AA; assay: two-hybrid library CCmax; details: mean of both orientations
T18 chain: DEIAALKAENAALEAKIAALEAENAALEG

4H971-AA = target: T19, 4H971-AA; assay: two-hybrid library CCmax; details: mean of both orientations
T19 chain: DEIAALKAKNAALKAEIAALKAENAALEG

4H535-AA = target: T20, 4H535-AA; assay: two-hybrid library CCmax
T20 chain: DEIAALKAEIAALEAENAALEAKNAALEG

4H58-AA = target: T21, 4H58-AA; assay: two-hybrid library CCmax; details: mean of both orientations
T21 chain: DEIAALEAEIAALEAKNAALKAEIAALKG

4H895-AA = target: T22, 4H895-AA; assay: two-hybrid library CCmax; details: mean of both orientations
T22 chain: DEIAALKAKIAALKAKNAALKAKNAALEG

4H_APH = target: T23, 4H_APH; assay: two-hybrid library CCmax
T23 chain: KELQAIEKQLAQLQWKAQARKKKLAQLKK

4H_BCR = target: T24, 4H_BCR; assay: two-hybrid library CCmax; details: mean of both orientations
T24 chain: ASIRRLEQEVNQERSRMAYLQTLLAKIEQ

4H_GCN4 = assay: two-hybrid library CCmax
GCN2_T = assay: two-hybrid library CCmax
4H3855-bH = target: T25, 4H3855-bH; assay: two-hybrid library CCNG1
T25 chain: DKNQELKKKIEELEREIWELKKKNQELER

4H4001-bH = target: T26, 4H4001-bH; assay: two-hybrid library CCNG1
T26 chain: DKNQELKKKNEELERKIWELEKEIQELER

4H454-bH = target: T27, 4H454-bH; assay: two-hybrid library CCNG1
T27 chain: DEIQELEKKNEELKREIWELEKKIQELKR

4H568-bH = target: T28, 4H568-bH; assay: two-hybrid library CCNG1
T28 chain: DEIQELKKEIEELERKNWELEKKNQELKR

4H607-bH = target: T29, 4H607-bH; assay: two-hybrid library CCNG1
T29 chain: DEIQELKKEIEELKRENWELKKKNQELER

4H687-bH = target: T30, 4H687-bH; assay: two-hybrid library CCNG1
T30 chain: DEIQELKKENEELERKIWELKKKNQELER

4H717-bH = target: T31, 4H717-bH; assay: two-hybrid library CCNG1
T31 chain: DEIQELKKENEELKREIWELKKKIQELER

4H72-bH = target: T32, 4H72-bH; assay: two-hybrid library CCNG1
T32 chain: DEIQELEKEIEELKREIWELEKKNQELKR

4H797-bH = target: T33, 4H797-bH; assay: two-hybrid library CCNG1
T33 chain: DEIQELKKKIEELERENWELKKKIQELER

4H883-bH = target: T34, 4H883-bH; assay: two-hybrid library CCNG1
T34 chain: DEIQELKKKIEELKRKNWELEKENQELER

4H908-bH = target: T35, 4H908-bH; assay: two-hybrid library CCNG1
T35 chain: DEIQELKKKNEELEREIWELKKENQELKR

4H918-bH = target: T36, 4H918-bH; assay: two-hybrid library CCNG1
T36 chain: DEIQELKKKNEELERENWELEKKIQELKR

4H953-bH = target: T37, 4H953-bH; assay: two-hybrid library CCNG1
T37 chain: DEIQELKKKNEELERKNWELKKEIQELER

4H967-bH = target: T38, 4H967-bH; assay: two-hybrid library CCNG1
T38 chain: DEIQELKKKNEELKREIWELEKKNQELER

O8-bA = target: T39, O8-bA; assay: two-hybrid library CCNG1
T39 chain: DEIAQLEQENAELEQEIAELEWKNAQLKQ

4H575-bN = target: T40, 4H575-bN; assay: two-hybrid library CCNG1
T40 chain: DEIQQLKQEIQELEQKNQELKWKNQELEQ

4H683-bN = target: T41, 4H683-bN; assay: two-hybrid library CCNG1
T41 chain: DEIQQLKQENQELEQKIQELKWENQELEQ

4H754-bN = target: T42, 4H754-bN; assay: two-hybrid library CCNG1
T42 chain: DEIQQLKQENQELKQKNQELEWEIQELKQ

4H780-bN = target: T43, 4H780-bN; assay: two-hybrid library CCNG1
T43 chain: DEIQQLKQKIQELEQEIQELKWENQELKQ

4H797-bN = target: T44, 4H797-bN; assay: two-hybrid library CCNG1
T44 chain: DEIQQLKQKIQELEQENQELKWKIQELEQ

4H855-bN = target: T45, 4H855-bN; assay: two-hybrid library CCNG1
T45 chain: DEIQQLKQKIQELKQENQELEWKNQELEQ

4H918-bN = target: T46, 4H918-bN; assay: two-hybrid library CCNG1
T46 chain: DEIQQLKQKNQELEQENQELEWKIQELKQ

4H953-bN = target: T47, 4H953-bN; assay: two-hybrid library CCNG1
T47 chain: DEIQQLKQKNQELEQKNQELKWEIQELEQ

4H968-bN = target: T48, 4H968-bN; assay: two-hybrid library CCNG1
T48 chain: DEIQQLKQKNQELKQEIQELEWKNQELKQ

Chain of 4H_GCN4 (chain, as listed by the source): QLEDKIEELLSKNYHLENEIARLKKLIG

Work on DKIAALKAKNAALEAKIAALKAKNAALEG [4H2991-AA] yielded an interaction score (4H3029-AA; mean of both orientations) of -1.76, an interaction score (4H3066-AA) of -1.81 and an interaction score (4H3102-AA) of -0.548. For the same binder, the interaction score (4H3121-AA) was 1.28, the interaction score (4H3417-AA) was -1.68 and the interaction score (4H3446-AA) was -1.73. The interaction score (4H3591-AA) was -1.47, the interaction score (4H3628-AA) was -1.99 and the interaction score (4H3666-AA) was -1.01. It also gave an interaction score (4H3709-AA) of -1.43, an interaction score (4H391-AA) of 1.52 and an interaction score (4H3920-AA) of -1.73. For the same binder, the interaction score (4H3939-AA) was -1.71, the interaction score (4H428-AA) was -0.913 and the interaction score (4H478-AA) was -1.87. It also gave an interaction score (4H497-AA) of -1.91, an interaction score (4H656-AA) of -0.731 and an interaction score (4H675-AA) of -0.186. It also gave an interaction score (4H971-AA) of -0.98.

DKIAALKAKNAALKAENAALEAKIAALEG [4H3029-AA] showed an interaction score (4H3029-AA) of -0.965, an interaction score (4H3066-AA) of -1.01 and an interaction score (4H3102-AA) of 0.23. It also gave an interaction score (4H3121-AA) of -1.89, an interaction score (4H3417-AA) of -1.74 and an interaction score (4H3446-AA) of -1.79. The interaction score (4H3591-AA) was -1.37, the interaction score (4H3628-AA) was -1.87 and the interaction score (4H3666-AA) was -1.86. It also gave an interaction score (4H3709-AA) of -1.34, an interaction score (4H391-AA) of -1.42 and an interaction score (4H3920-AA) of -1.69. The interaction score (4H3939-AA) was -1.98, the interaction score (4H428-AA) was -1.74 and the interaction score (4H478-AA) was 1.48. The interaction score (4H497-AA) was -0.722, the interaction score (4H656-AA) was -1.3 and the interaction score (4H675-AA) was -1.45. It also gave an interaction score (4H971-AA) of -2.45.

With DEIAALKAEIAALEAENAALEAKNAALEG [4H535-AA] the interaction score (4H535-AA) was -0.291, the interaction score (4H58-AA) was -0.661 and the interaction score (4H895-AA) was 2.1. The interaction score (4H_APH) was -1.48, the interaction score (4H_BCR) was -1.23 and the interaction score (4H_GCN4) was -1.41. The interaction score (GCN2_T) was -2.47.

For DKNQELKKKIEELEREIWELKKKNQELER [4H3855-bH], the interaction score (4H3855-bH) was -1.88, the interaction score (4H4001-bH) was 1.02 and the interaction score (4H454-bH) was 0.744. It also gave an interaction score (4H568-bH) of -2.56, an interaction score (4H607-bH) of -1.71 and an interaction score (4H687-bH) of -0.688. The interaction score (4H717-bH) was -0.607, the interaction score (4H72-bH) was -1.07 and the interaction score (4H797-bH) was -0.875. It also gave an interaction score (4H883-bH) of 0.413, an interaction score (4H908-bH) of -1.26 and an interaction score (4H918-bH) of -0.471. The interaction score (4H953-bH) was -0.861, the interaction score (4H967-bH) was -0.847 and the interaction score (O8-bA) was -2.06.

With DEIQQLKQEIQELEQKNQELKWKNQELEQ [4H575-bN] the interaction score (4H575-bN) was -0.842, the interaction score (4H683-bN) was 0.443 and the interaction score (4H754-bN) was -2.08. It also gave an interaction score (4H780-bN) of -0.38, an interaction score (4H797-bN) of -1.51 and an interaction score (4H855-bN) of 0.475. For the same binder, the interaction score (4H918-bN) was 0.56, the interaction score (4H953-bN) was 0.476 and the interaction score (4H968-bN) was -0.976.
